This test deals with T1, His-tagged Catalytic Domain of JAK2 (residues 826–1132) (UniProt O60674 826-1132, RED-tris-NTA dye bound to the His tag (His-Tag labeling Kit RED-tris-NTA)).
T1 construct: JAK2 (Janus Kinase 2), catalytic domain, residues 826-1132; also called JAK2 catalytic domain; Janus Kinase 2; source: bought: Carna Biosciences
The test can be described thus: MST; Monolith NT 115; His-tagged JAK2 catalytic domain labelled with RED-tris-NTA kept constant, peptides in increasing concentrations; standard capillaries, 25 °C, 50 mM Tris-HCl, 150 mM NaCl, 0.05% Brij35, 1 mM DTT, 10% glycerol, 15% TFE, pH 7.5; fit by Langmuir binding isotherm. The settings on record: both partners purified.

Where no end group is shown, it is not given here. [ ]: non-standard residue; d: D form. S5 = C=CCCC[C@](C)(N)C(=O)O

T1 sequence (O60674 826-1132): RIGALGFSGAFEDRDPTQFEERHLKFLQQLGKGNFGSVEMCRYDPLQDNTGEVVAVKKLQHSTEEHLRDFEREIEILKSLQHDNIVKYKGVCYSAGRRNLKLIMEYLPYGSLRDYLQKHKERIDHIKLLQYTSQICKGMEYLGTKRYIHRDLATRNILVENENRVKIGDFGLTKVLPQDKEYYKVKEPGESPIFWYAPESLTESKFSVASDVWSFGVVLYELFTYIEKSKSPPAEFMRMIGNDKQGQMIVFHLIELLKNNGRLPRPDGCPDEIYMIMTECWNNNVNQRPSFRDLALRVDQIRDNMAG

For the molecule FSSKSEYQL[S5]FYWS[S5]VTG-OH (not fully specified; bridges not given here) [linear version of KIRCONG i/i+5 peptide], the Kd (as a rule, the free concentration of one partner at which half of the binding sites on the other are occupied at equilibrium, for simple one-to-one binding) is 8 µM.
